Residue numbers refer to the chain shown, from its start.

In assay [1] the target is S protein of live MERS-CoV EMC/2012 (MERS-CoV). The assay can be described thus: cell-based or functional assay.
For assay [2], the target named is T1, S protein of live MERS-CoV EMC/2012 (MERS-CoV).
T1 chain: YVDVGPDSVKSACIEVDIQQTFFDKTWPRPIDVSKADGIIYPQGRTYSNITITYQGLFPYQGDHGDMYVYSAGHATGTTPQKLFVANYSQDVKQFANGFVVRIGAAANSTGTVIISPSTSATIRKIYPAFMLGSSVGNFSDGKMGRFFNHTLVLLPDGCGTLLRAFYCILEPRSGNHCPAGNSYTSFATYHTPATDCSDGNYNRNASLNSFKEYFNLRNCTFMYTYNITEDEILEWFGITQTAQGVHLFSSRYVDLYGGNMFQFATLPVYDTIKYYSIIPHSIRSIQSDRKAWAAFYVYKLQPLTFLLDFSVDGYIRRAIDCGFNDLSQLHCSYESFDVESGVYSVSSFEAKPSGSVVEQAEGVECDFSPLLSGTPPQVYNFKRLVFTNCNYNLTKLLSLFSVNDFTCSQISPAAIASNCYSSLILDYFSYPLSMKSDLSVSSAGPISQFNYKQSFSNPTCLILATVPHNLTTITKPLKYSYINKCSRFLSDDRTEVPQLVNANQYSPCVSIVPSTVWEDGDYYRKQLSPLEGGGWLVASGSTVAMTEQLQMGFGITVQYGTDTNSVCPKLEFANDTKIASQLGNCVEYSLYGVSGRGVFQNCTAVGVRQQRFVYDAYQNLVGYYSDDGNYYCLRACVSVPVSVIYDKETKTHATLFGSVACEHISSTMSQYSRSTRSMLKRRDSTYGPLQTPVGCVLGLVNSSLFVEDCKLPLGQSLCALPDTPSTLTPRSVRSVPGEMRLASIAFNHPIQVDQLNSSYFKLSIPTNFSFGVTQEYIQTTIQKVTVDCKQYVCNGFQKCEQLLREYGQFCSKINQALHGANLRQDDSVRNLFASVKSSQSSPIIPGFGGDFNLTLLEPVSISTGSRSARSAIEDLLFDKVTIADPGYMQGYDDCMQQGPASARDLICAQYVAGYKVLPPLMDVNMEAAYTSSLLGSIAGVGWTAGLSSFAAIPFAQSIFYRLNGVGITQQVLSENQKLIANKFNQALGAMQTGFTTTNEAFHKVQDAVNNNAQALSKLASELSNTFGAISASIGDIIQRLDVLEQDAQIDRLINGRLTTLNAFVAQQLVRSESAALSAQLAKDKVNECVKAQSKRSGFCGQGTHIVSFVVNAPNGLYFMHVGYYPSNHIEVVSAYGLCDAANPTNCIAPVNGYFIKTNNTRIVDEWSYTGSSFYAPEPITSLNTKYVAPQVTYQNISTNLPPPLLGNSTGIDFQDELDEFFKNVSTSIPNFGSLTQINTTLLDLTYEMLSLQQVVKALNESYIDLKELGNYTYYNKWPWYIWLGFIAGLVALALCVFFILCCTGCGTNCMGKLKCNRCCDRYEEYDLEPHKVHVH
Put plainly: cell-based or functional assay.

B1: 1F8 IgG1 (antibody, V domains shown)
VH: EVQLVQSGAEVKEPGSSVKVSCKASGGTFGSYAINWVRQAPGQRLEWMGWIDAANGNTKYSQKFQGRVTITGDTSASTAYMELSSLRSEDTAVYYCARDRWMTTRAFDIWGQGTMVTVSS
VL: QPVLTQPPSASGTPGQRVTISCSGSSSNIGSNYVFWYQQLPGMAPKLLISRNNQRPSGVPDRFSGSKSGTSASLAISGPQSEDEADYYCAAWDDSLRGPVFGGGTRVTVL
For B1, the “IC50 (µg/ml), PRNT50 live virus, wt.” value in assay [1] turned out to be 4.05 µg/mL.

B2: 3B12 scFvFc (scFv, V domains shown)
VH: QVQLVQSGAEVKKPGSSVKVSCKASGGTFSSYAISWVRQAPGQGLEWMGGIIPIFGTANYAQKFQGRVTITADKSTSTAYMELSSLRSEDTAVYYCARASYCSTTSCASGAFDIWGQGTLVTVSS
VL: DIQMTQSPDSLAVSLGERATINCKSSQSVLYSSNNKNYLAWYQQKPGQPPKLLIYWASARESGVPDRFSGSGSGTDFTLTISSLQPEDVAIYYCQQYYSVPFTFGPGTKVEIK
B2: the “IC50 (µg/ml), PRNT50 live virus, wt.” value in assay [2] amounted to 1.25 µg/mL.

B3: 3B11 IgG1 (antibody, V domains shown)
VH: B2 VH with A99V, S100G, T104S, A108H, S109I, L120T
VL: ETTLTQSPGTLSLSPGERATLSCRASQSVSSSIAWYQQKPGQAPRLLMFDSSTRATGIPDRFSGSGSGTDFTLNISSLEPEDFAVYYCQQYSSSPYTFGQGTKLEIK
As to B3, the “IC50 (µg/ml), PRNT50 live virus, wt.” value in assay [1] was 3.5 µg/mL.

B4: 3A1 scFvFc (scFv, V domains shown)
VH: QVQLVQSGAEVKKPGSSVKVSCKASGGTFSSYAVSWVRQAPGQGLEWVGRIIPIFGKANYAQKFQGRVTITADKSTSTAYMELSSLRPEDTAVYYCARDQGISANFKDAFDIWGQGTTVTVSS
VL: ETTLTQSPATLSVSPGERATLSCRASESVGSNLAWYQQKPGQAPSLLIYGASTRATGIPDRFSGSGSGTDFTLTISSLQSEDFAAYYCQQYNNWPLTFGPGTKVEIK
Turning to B4, the “IC50 (µg/ml), PRNT50 live virus, wt.” value in assay [1] amounted to 1.46 µg/mL.

B5: 3A1 IgG1 (antibody, V domains shown)
VH: B4 VH
VL: B4 VL
Turning to B5, the “IC50 (µg/ml), PRNT50 live virus, wt.” value in assay [1] was found to be 4.5 µg/mL.

The values above are taken from US20210147513A1 (published 2021).
